No end group written: not given here. *: point of attachment. Biotin = O=C1N[C@H]2[C@H](CS[C@H]2CCCCC(=O)*)N1
Tests used:
[1] = biological target: T1, epitope mapping peptide #16 (human, not fully specified (C-terminus)); assay: labelled AK1967 on biotinylated peptide #16 captured on avidin plate, chemiluminescence
T1 peptide: TVINPETGEQIQSWYK(Biotin)
Protocol: (§1) The plates were filled with 200 μl of labelled and diluted detection antibody (tracer) and incubated for 4 h at room temperature. Unbound tracer was removed by washing 4 times with 350 μl washing solution (20 mM PBS, pH 7.4, 0.1% Triton X-100). Well-bound chemiluminescence was measured by using the Centro LB 960 luminometer (Berthold Technologies GmbH & Co. KG).

[2] = biological target: T2, epitope mapping peptide #15 (human, not fully specified (C-terminus)); assay: labelled AK1967 on biotinylated peptide #15 captured on avidin plate, chemiluminescence
T2 peptide: VINPETGEQIQSWYK(Biotin)
Protocol: as §1

[3] = biological target: T3, epitope mapping peptide #1 (human, biotinylated at the N- or C-terminus (which end is in the drawing only)); assay: labelled AK1967 on biotinylated peptide #1 captured on avidin plate, chemiluminescence
T3 peptide: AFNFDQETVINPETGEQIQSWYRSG
Protocol: as §1

[4] = biological target: T4, epitope mapping peptide #8 (human); assay: labelled AK1967 on biotinylated peptide captured on avidin plate, chemiluminescence
T4 peptide: Biotin-AFNFDQETVINPE
Protocol: as §1

[5] = biological target: T5, epitope mapping peptide #10 (human); assay: as above
T5 construct: also called bio-AFNFDQETVIN
T5 peptide: Biotin-AFNFDQETVIN
Protocol: as §1

[6] = biological target: T6, epitope mapping peptide #11 (human, not fully specified (C-terminus)); assay: as above
T6 peptide: ETGEQIQSWYK(Biotin)
Protocol: as §1

[7] = biological target: T7, epitope mapping peptide #7 (human); assay: as above
T7 peptide: Biotin-AFNFDQETVINPET
Protocol: as §1

[8] = biological target: T8, epitope mapping peptide #13 (human, not fully specified (C-terminus)); assay: as above
T8 peptide: NPETGEQIQSWYK(Biotin)
Protocol: as §1

[9] = biological target: T9, epitope mapping peptide #12 (human, not fully specified (C-terminus)); assay: as above
T9 peptide: PETGEQIQSWYK(Biotin)
Protocol: as §1

[10] = biological target: T10, epitope mapping peptide #9 (human); assay: as above
T10 peptide: Biotin-AFNFDQETVINP
Protocol: as §1

[11] = biological target: T11, epitope mapping peptide #14 (human, not fully specified (C-terminus)); assay: labelled AK1967 on biotinylated peptide #14 captured on avidin plate, chemiluminescence
T11 peptide: INPETGEQIQSWYK(Biotin)
Protocol: as §1

[12] = biological target: T12, epitope mapping peptide #4 (human); assay: labelled AK1967 on biotinylated peptide #4 captured on avidin plate, chemiluminescence
T12 peptide: Biotin-AFNFDQETVINPETGEQ
Protocol: as §1

[13] = biological target: T13, epitope mapping peptide #5 (human); assay: labelled AK1967 on biotinylated peptide #5 captured on avidin plate, chemiluminescence
T13 peptide: Biotin-AFNFDQETVINPETGE
Protocol: as §1

[14] = biological target: T14, epitope mapping peptide #17 (human, not fully specified (C-terminus)); assay: labelled AK1967 on biotinylated peptide #17 captured on avidin plate, chemiluminescence
T14 peptide: ETVINPETGEQIQSWYK(Biotin)
Protocol: as §1

[15] = biological target: T15, epitope mapping peptide #6 (human); assay: labelled AK1967 on biotinylated peptide #6 captured on avidin plate, chemiluminescence
T15 peptide: Biotin-AFNFDQETVINPETG
Protocol: as §1

[16] = biological target: T16, epitope mapping peptide #2 (human); assay: labelled AK1967 on biotinylated peptide #2 captured on avidin plate, chemiluminescence
T16 peptide: Biotin-AFNFDQETVINPETGEQIQ
Protocol: as §1

[17] = biological target: T17, epitope mapping peptide #3 (human); assay: labelled AK1967 on biotinylated peptide #3 captured on avidin plate, chemiluminescence
T17 peptide: Biotin-AFNFDQETVINPETGEQI
Protocol: as §1

B1: monoclonal anti-DPP3 antibody AK1967 (clone 1967 of SEQ ID No.: 2) (antibody, V domains shown)
VH: QVTLKESGPGILQPSQTLSLTCSFSGFSLSTSGMSVGWIRQPSGKGLEWLAHIWWNDNKSYNPALKSRLTISRDTSNNQVFLKIASVVTADTGTYFCARNYSYDYWGQGTTLTVSS
VL: DVVVTQTPLSLSVSLGDPASISCRSSRSLVHSIGSTYLHWYLQKPGQSPKLLIYKVSNRFSGVPDRFSGSGSGTDFTLKISRVEAEDLGVYFCSQSTHVPWTFGGGTKLEIK
notes: Murine monoclonal; A human IgG1 kappa backbone was used for chimerization and humanization; The Octet run captured 'AK1967' on anti-human Fc biosensors, so the format in that run is uncertain; also called Procizumab; PCZ
**Q.** Which results are given for B1?
**A.** binding result [1]: binds; binding result [2]: binds; binding result [3]: binds; binding result [4]: no binding; binding result [5]: no binding; binding result [6]: no binding; binding result [7]: no binding; binding result [8]: no binding; binding result [9]: no binding; binding result [10]: no binding; binding result [11]: binds; binding result [12]: binds; binding result [13]: binds; binding result [14]: binds; binding result [15]: binds; binding result [16]: binds; binding result [17]: binds

From US20230213519A1 (4TEEN4 PHARMACEUTICALS, published 2023)
